Test results from patent US8178486B2, “Method for promoting hair growth” (Animal Technology Institute Taiwan, priority 2005, dated 2012).

Key:
Assay type in all cases: in vivo
hair follicles [1] = test: Hair growth in young mice, topical application to shaved dorsal skin; conditions: 2-month old male ICR mice; for time until hair growth was observed after the treatment: water control 15-17 days
Description: To study the effect of lactoferrin in hair growth in young mice, five male ICR (outbred) mice, each 2 months old, were shaved to expose a portion of dorsal skin. For each treated mouse, the exposed portion of dorsal skin was further marked with three areas as illustrated in FIG. 1A to be subsequently administered different treatments. Referring to FIG. 1B, the three marked areas (from left to right) were treated by spreading topically on the exposed skin areas 60 μl of bovine lactoferrin (as an aqueous solution of 100 mg/ml), 60 μl of bovine lactoferrin (of 200 mg/ml) and 60 μl of control vehicle (water), respectively, on a twice daily basis. Observation for hair growth in the marked areas was made daily after the first treatment. […] The hair growth was observed on all five mice administered 200 mg/ml of lactoferrin 2 to 4 days after the treatment.
Hematoxylin and Eosin (H&E) staining was performed to microscopically examine the skin area treated with 200 mg/ml of lactoferrin or the control vehicle for 14 days. […] Thus, the proliferation of the anagen phase hair follicles evidently reflected the hair growth observed in the lactoferrin-treated area.

hair follicles [2] = test: Hair growth in aged mice, topical application to shaved dorsal skin; conditions: 11-month old male ICR mice; for time until hair began to grow on the treated areas after the treatment: water control 21-23 days
Description: To further test whether lactoferrin could induce hair growth in aged mice, five male ICR mice, each 11 months old, were similarly shaved and marked with three areas of the exposed dorsal skin as described in Example 1. The marked areas of the mice were applied by spreading topically on the exposed skin areas 60 μl of aqueous solutions of bovine lactoferrin (100 mg/ml), 60 μl of bovine lactoferrin (200 mg/ml) and 60 μl of control vehicle (water) twice a day. Observation for hair growth in the marked areas was made daily after the first treatment. […] In general, the mice treated with 200 mg/ml of lactoferrin began to grow hair on the treated areas 4-6 days after the treatment. […] Spontaneous hair growth in the control area was only observed 21-23 days after the treatment. The hair growth-promoting effect of lactoferrin was consistently observed in all tested mice.
The H&E staining method was performed in a manner similar to Example 1 to examine the skin area treated with 200 mg/ml of lactoferrin or the control vehicle for 14 days. […] Thus, the hair follicles are clearly activated or triggered to re-enter from the telogen-phase to the anagen-phase. The activation of the hair follicles also reflects the hair growth observed in the lactoferrin-treated area.

hair follicles [3] = test: Hair growth in 4-month old female mice, topical application to shaved dorsal skin; conditions: 60 μl of 200 mg/ml topically twice daily, after 10 days, not seen with control vehicle
Description: The marked areas of the mice were applied by spreading topically on the exposed skin areas 60 μl of aqueous solutions of bovine lactoferrin (200 mg/ml), 60 μl of control vehicle (water), and 60 μl of bovine lactoferricin, obtained as set forth in Example 3, (200 mg/ml) twice daily. Observation for hair growth in the marked areas is made daily after the first treatment. […] The hair growth-promoting effect of lactoferrin or lactoferricin was consistently observed in all tested mice. Although lactoferricin was prepared by the method described in Example 3 above, the present invention should not be limited to use only lactoferricin prepared in such manner. Lactoferricin prepared by other methods would still fall within the scope of the present invention.

[4] = 200 mg/ml, 14 days of treatment, H&E histology

B1: lactoferrin (protein, UniProt P24627 20-708, looked up)
Lactotransferrin: APRKNVRWCTISQPEWFKCRRWQWRMKKLGAPSITCVRRAFALECIRAIAEKKADAVTLDGGMVFEAGRDPYKLRPVAAEIYGTKESPQTHYYAVAVVKKGSNFQLDQLQGRKSCHTGLGRSAGWIIPMGILRPYLSWTESLEPLQGAVAKFFSASCVPCIDRQAYPNLCQLCKGEGENQCACSSREPYFGYSGAFKCLQDGAGDVAFVKETTVFENLPEKADRDQYELLCLNNSRAPVDAFKECHLAQVPSHAVVARSVDGKEDLIWKLLSKAQEKFGKNKSRSFQLFGSPPGQRDLLFKDSALGFLRIPSKVDSALYLGSRYLTTLKNLRETAEEVKARYTRVVWCAVGPEEQKKCQQWSQQSGQNVTCATASTTDDCIVLVLKGEADALNLDGGYIYTAGKCGLVPVLAENRKSSKHSSLDCVLRPTEGYLAVAVVKKANEGLTWNSLKDKKSCHTAVDRTAGWNIPMGLIVNQTGSCAFDEFFSQSCAPGADPKSRLCALCAGDDQGLDKCVPNSKEKYYGYTGAFRCLAEDVGDVAFVKNDTVWENTNGESTADWAKNLNREDFRLLCLDGTRKPVTEAQSCHLAVAPNHAVVSRSDRAAHVKQVLLHQQALFGKNGKNCPDKFCLFKSETKNLLFNDNTECLAKLGGRPTYEEYLGTEYVTAIANLKKCSTSPLLEACAFLTR
notes: 78-80 kDa glycoprotein; commercially obtained bovine lactoferrin applied as aqueous solution
- number of anagen phase hair follicles relative to control vehicle-treated area (hair follicles [1]; [4]): approximately two-fold
- skin thickness versus control vehicle-treated skin (hair follicles [1]; [4]): no significant difference
- time until hair growth was observed after the treatment (hair follicles [1]; 60 μl of 100 mg/ml aqueous solution topically twice daily): 3 to 5 days
- time until hair growth was observed after the treatment (hair follicles [1]; 60 μl of 200 mg/ml aqueous solution topically twice daily): 2 to 4 days
- speed of hair growth versus control vehicle-treated skin (hair follicles [1]; lactoferrin-treated skin (100 and 200 mg/ml), twice daily): more rapid hair growth
- subcutaneous fat and skin thickness versus control area (hair follicles [2]; 200 mg/ml, 14 days, H&E): increased subcutaneous fat and increased thickness of skin
- hair follicle phase in histological examination (hair follicles [2]; 200 mg/ml, 14 days, H&E, control area uniform telogen-phase follicles): a large number of anagen-phase (actively growing stage) hair follicles
- hair growth observed in the treated skin area (hair follicles [2]; 200 mg/ml, after 11 days of treatment, not seen with control vehicle): prominent hair growth
- time until hair began to grow on the treated areas after the treatment (hair follicles [2]; 60 μl of 100 mg/ml topically twice a day): 6 to 8 days
- time until hair began to grow on the treated areas after the treatment (hair follicles [2]; 60 μl of 200 mg/ml topically twice a day): 4 to 6 days
- inflammation and morphological abnormalities of the treated skin (hair follicles [2]; topical lactoferrin twice a day): no inflammation and morphological abnormalities
- hair growth observed in the treated skin area (hair follicles [3]): prominent hair growth
